Target: Moritella marina polyketide synthase (PKS), four polypeptides Orf5, Orf6, Orf7 and Orf8

B1: Moritella marina phosphopantetheinyl transferase, long form (Mm-ppt long) (protein)
chain: LVQLKTYDETRLRSDGVNYLGGNLSYYQACNGKRIILVSILIMYSGVKDKLTLTTNEIHLWSVTPQTIQQPELLQAYSQLLSPAETIKQQRFRFEKDRHNALITRAFVRDLLSHYADVLPADWQFVKGEKDKPEIANPPLPLRFNISHTDNLIICAVMLNDDIGCDVENTLRSSNVLSIAKHSFSDSEFNDLLTQPTAQQTSRFFDYWTLKESYIKAWGLGLSIPLKDFSFTLPEGFQQQYQQEDQQENQHCIDTIKLSFAPHRIDNPNIWRHWLFYPNNTHRVALAVRARSNNQQTEYKMRFFNSTPLINITETLIFKPETNFKPDAK
- DHA Produced (gas chromatography of fatty acid methyl esters from E. coli co-expressing the Ppt and the PKS): Yes

B2: Shewanella oneidensis MR-1 phosphopantetheinyl transferase (So-ppt) (protein)
chain: MKIELFFIPLAEMDAEMVSRCMALLSEDERAKVARYLAPKAQMNGLLVRAALRCVLSQGLQSPNESSLNAFSSNTGSLPIAPQDWCFEYGAKGKPSLCHEQFLKTGIEFNLSHSGDWLLIALAQGRAHTKFIDQSAKTRLGLGVDIERARASTNIYPILNHYFSARETEALLALPGETAHRQRFFDLWALKESYIKATGLGLAQSLKSFAFELMPDALVEVHPNQVALRHEWVELKRREPFALPSQLKLYCEIKPTAAFLPDSAHPPPENLHVQSYFGRLDEEYRFGLSLIHPNALSNVQISMTLASIKSLLAASLAD
- DHA Produced (gas chromatography of fatty acid methyl esters from E. coli co-expressing the Ppt and the PKS): Yes

B3: Colwellia psychrerythraea phosphopantetheinyl transferase (Cp-ppt) (protein)
chain: MTSFSQSELSTRTKEKLDLAANEIHIWVTKPEELLGNDELLATYSTLLTSTETAKQQRYKFAKDRHDALITRAFIRDLLSYYADVAPQDWQFEKGNKDKPEVINCPLPLRFNISHTKNLIICAVTLEDDIGCDVENTGRNNNVLAIAERYFSSKEIDELFALPEAQQRNRFFDYWTLKESYIKAWGLGLAIPLADFSFKINDTEHNHNGLFTIKQDINLSFAEHRVDEPQIWRSWLVYPTAAIDEKQEHRIAVSLRATSDNQKTDYQLRFFNTLPLLGYQEI
- DHA Produced (gas chromatography of fatty acid methyl esters from E. coli co-expressing the Ppt and the PKS): Yes

B4: Moritella marina phosphopantetheinyl transferase, short form (Mm-ppt short) (protein)
chain: MYSGVKDKLTLTTNEIHLWSVTPQTIQQPELLQAYSQLLSPAETIKQQRFRFEKDRHNALITRAFVRDLLSHYADVLPADWQFVKGEKDKPEIANPPLPLRFNISHTDNLIICAVMLNDDIGCDVENTLRSSNVLSIAKHSFSDSEFNDLLTQPTAQQTSRFFDYWTLKESYIKAWGLGLSIPLKDFSFTLPEGFQQQYQQEDQQENQHCIDTIKLSFAPHRIDNPNIWRHWLFYPNNTHRVALAVRARSNNQQTEYKMRFFNSTPLINITETLIFKPETNFKPDAK
- DHA Produced (gas chromatography of fatty acid methyl esters from E. coli co-expressing the Ppt and the PKS): Yes

From US7868228
